Measurements from the supplement of paper PMC10724198.
± gives the standard deviation of the averaged measurements.

System: Saccharomyces cerevisiae
Test: protein stability index of tFT-peptide fusion (C-terminal peptide) (PSI (0-1 scale)); higher = more stable (slower turnover)
Conditions: genetic background: wild type; temperature: 30 C
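Note: PSI is a weighted mean of sequencing reads over stability bins, variants kept only with over 10 reads, mCherry proximal and sfGFP distal, peptide attached via GGGS linker.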

Sequence | protein stability index
RKVTQSKQGKKR | 0.722 ± 0.0093
RKYKKKKGSKEE | 0.708 ± 0.063
RLCPNSITLPSL | 0.7156 ± 0.0018
RLDVVGVPERTL | 0.762 ± 0.047
RLEKGEDREGKK | 0.641 ± 0.085
RLEMPSVRSCAV | 0.638 ± 0.17
RLFGFGEQKIEE | 0.695 ± 0.021
RLGERGAKPQGR | 0.635 ± 0.0074
RLGGTMVVGTGG | 0.661 ± 0.041
RLGHAIVLLLPC | 0.57 ± 0.027
RLGKRKKPYTQG | 0.756 ± 0.077
RLGLQWGEFGTL | 0.72 ± 0.033
RLHHQYSEATIS | 0.703 ± 0.027
RLHSLFVSCPTC | 0.703 ± 0.023
RLIPYPPPLSLP | 0.724 ± 0.021
RLLGLWGEVMGF | 0.731 ± 0.021
RLLGSGHCLLYI | 0.613 ± 0.047
RLPAFSSDLLRH | 0.704 ± 0.046
RLPLRVTGIPVD | 0.6668 ± 0.0016
RLPPPLPQAPPT | 0.712 ± 0.023
RLPQIHSDREQK | 0.746 ± 0.018
RLPSPPTAPAPP | 0.658 ± 0.0084
RLRASFFFSPAL | 0.733 ± 0.056

Sequence | protein stability index
RLRFIGDCKSST | 0.637 ± 0.031
RLRGLLSPVGPQ | 0.716 ± 0.047
RLRVIMVSVGGV | 0.544 ± 0.0079
RLSDFFSPPLLP | 0.717 ± 0.047
RLSMCLDDPPRL | 0.717 ± 0.025
RLSPGSPSPFPC | 0.691 ± 0.029
RLSSFDELSDVY | 0.729 ± 0.026
RLYTNEMIRGSF | 0.69 ± 0.04
RMGGRGGRLGAE | 0.657 ± 0.018
RMGWSGKVGVVG | 0.78 ± 0.11
RMNSDMKDTEAQ | 0.65 ± 0.0075
RNARSPACRTRR | 0.7481 ± 0.0052
RNFWIYTHTRCR | 0.668 ± 0.049
RNKLEKKIYKRS | 0.672 ± 0.014
RNKSRMWKEIIR | 0.657 ± 0.069
RNRAGHVGCYGL | 0.6989 ± 0.0066
RNRSNTQAKVIR | 0.6725 ± 0.004
RNTKGTIKKKKE | 0.715 ± 0.074
RNTPFVCVRNGA | 0.726 ± 0.16
RPAFSPDVSPPS | 0.716 ± 0.013
RPEAVARIFDDE | 0.724 ± 0.013
RPFLSVLPLFFP | 0.734 ± 0.0017
RPFSSPSPSLPA | 0.743 ± 0.071

Sequence | protein stability index
RPGGSRTEGRRT | 0.683 ± 0.033
RPPISLGSLLVG | 0.714 ± 0.1
RPPPAAPLHITS | 0.714
RPPPHPPFPPRF | 0.714 ± 0.052
RPPPLPLPPHFP | 0.709 ± 0.069
RPPPPLSPPSLV | 0.73 ± 0.0084
RPPRPSSSPLPP | 0.719 ± 0.059
RPPSLWRSSFTP | 0.6822 ± 0.0026
RPQNDRKMRKVE | 0.621 ± 0.059
RPRELHNSETVY | 0.683 ± 0.025
RPRTLLARSTHP | 0.717 ± 0.013
RPRVDLCDINPE | 0.692 ± 0.021
RPSHPPHLPPPV | 0.6753 ± 0.0044
RPSLSPLHVPPS | 0.748 ± 0.047
RPVRYVLSGGCI | 0.68 ± 0.012
RPYKINNNIEVK | 0.676 ± 0.01
RQEKITQHRARI | 0.689 ± 0.024
RQLGELASARWL | 0.709 ± 0.025
RQPRPPDDIASV | 0.678 ± 0.032
RQRSKEPVVQAY | 0.654 ± 0.046
RQSSPKQDRKPS | 0.679 ± 0.048
RRATHTRDINNL | 0.643 ± 0.015
RRERQRRARTEI | 0.6876 ± 0.0036

Sequence | protein stability index
RREVFIPSTRVL | 0.698 ± 0.044
RRGAPSYATLAL | 0.637 ± 0.0073
RRGASWDEDAGS | 0.719 ± 0.0086
RRGENQSFPACR | 0.701 ± 0.028
RRGHMTRFTHSR | 0.692 ± 0.077
RRGPDRCSSLPS | 0.6638 ± 0.0044
RRHHSVSPLPFL | 0.709 ± 0.0099
RRIGKTFLSLNI | 0.709 ± 0.073
RRKGGEERKLKK | 0.629 ± 0.037
RRKRTKGRGRAQ | 0.6986 ± 0.002
RRLAGRPVTRGA | 0.667 ± 0.015
RRLEPGVAWFPT | 0.661 ± 0.01
RRLLRWFYLDGG | 0.661 ± 0.022
RRMAGEPKCGRS | 0.699 ± 0.015
RRPGGQGHPNAG | 0.752 ± 0.023
RRPGSTTPPAYR | 0.675 ± 0.048
RRPTVLRHQSPI | 0.737 ± 0.031
RRREESGEGSEQ | 0.635 ± 0.073
RRRLLLWEELVE | 0.7706 ± 0.004
RRRQARGANAHS | 0.7 ± 0.013
RRRRAVGPREAP | 0.717 ± 0.17
RRRREKWSVVHR | 0.758 ± 0.0096
RRRTARVRTGQV | 0.647 ± 0.043

Sequence | protein stability index
RRRVADIYHGEK | 0.713 ± 0.086
RRSGLTNLCSLH | 0.746 ± 0.04
RRSRPSSPYLPP | 0.707 ± 0.0094
RRTTYKKVKRKK | 0.65 ± 0.062
RRVGPVSPNWIS | 0.6499 ± 0.0042
RRVPVVSRAGGG | 0.697 ± 0.067
RRWAFWGAAAAR | 0.702 ± 0.013
RRWCATLGRDRV | 0.7029 ± 0.0051
RRWGGCPGVRGC | 0.666 ± 0.019
RSANIINPHIFP | 0.758 ± 0.014
RSASPPRPLPPP | 0.737 ± 0.032
RSCCSFRLEPYC | 0.671 ± 0.026
RSCVGGISVLVL | 0.466 ± 0.085
RSEPRQILHRQT | 0.702 ± 0.025
RSFAGTTRIRLG | 0.739 ± 0.043
RSFLTDLLRGAA | 0.647 ± 0.054
RSFPYLLFPPPS | 0.713 ± 0.046
RSGLHGSGRPGG | 0.715 ± 0.053
RSHPSPPPVILY | 0.686 ± 0.045
RSLGFPLRNVTH | 0.655 ± 0.015
RSLGLVGRGFWG | 0.728 ± 0.086
RSLRSSRSGTLA | 0.848 ± 0.014
RSMLVSRQSIGV | 0.695 ± 0.019

Sequence | protein stability index
RSNECTSEMEVC | 0.689 ± 0.04
RSPPPSLTPSPL | 0.68193 ± 0.00027
RSPTGSPGRSFS | 0.687 ± 0.025
RSRATIGSQILS | 0.688 ± 0.01
RSRCHPRLPRAV | 0.707 ± 0.03
RSRHPPPPLLFP | 0.707 ± 0.043
RSRLSEAEEYGR | 0.71 ± 0.0072
RSRPPPSPTTPL | 0.775 ± 0.054
RSRRFPPTRPPL | 0.73956 ± 0.00073
RSRYRLFRADLS | 0.753 ± 0.062
RSSGAFKVCTDR | 0.684 ± 0.019
RSSGPPCLIPLP | 0.787 ± 0.047
RSSLGSFSELSQ | 0.777 ± 0.031
RSSPPHLPPPSL | 0.68 ± 0.026
RSSSPLPLLSLL | 0.753 ± 0.053
RSTLSPSPRPSP | 0.674 ± 0.0042
RSTSGACSRRWL | 0.624 ± 0.025
RSVSLIAVAPSA | 0.692 ± 0.017
RSWIDNKMKVNV | 0.721 ± 0.0076
RSYLLVWTSRLH | 0.637 ± 0.02
RTAGQRLIRVNR | 0.744 ± 0.075
RTAPVPETAQQD | 0.678 ± 0.034
RTAVFLTRRYGT | 0.673 ± 0.02

Sequence | protein stability index
RTDKETIKKIVE | 0.72 ± 0.014
RTLNPHLYRLRH | 0.682 ± 0.024
RTRPCNGPGRFG | 0.724 ± 0.057
RTTHPSPPTLTV | 0.629 ± 0.021
RVCDSAPKRNRH | 0.676 ± 0.018
RVCLVVWRECWF | 0.509 ± 0.0082
RVCYRAELSAMS | 0.559 ± 0.045
RVDGDFDYPRVV | 0.82 ± 0.11
RVDLPFDRSVSD | 0.702 ± 0.057
RVEADMKKRWTG | 0.716 ± 0.028
RVGGPGNRGGVV | 0.696 ± 0.058
RVGRCYPSIVRS | 0.6522 ± 0.0042
RVGRKGRRRGSR | 0.767 ± 0.07
RVGTGFVGYSFS | 0.679 ± 0.13
RVGVEYGETGGG | 0.732 ± 0.29
RVIHLRKIHYEE | 0.6728 ± 0.005
RVLCYHFSPGVV | 0.656 ± 0.057
RVLPPAPLQALQ | 0.645 ± 0.018
RVLWVELGSWGG | 0.708 ± 0.045
RVMPRVNDKKGI | 0.732 ± 0.092
RVNQRRATSEKT | 0.677 ± 0.0082
RVRDPQQISILL | 0.65 ± 0.025
